Measured values from the nanobody polyreactivity screen of Harvey et al. (2022).

assay: yeast display, Sf9 membrane polyspecificity reagent, FACS + sequencing; frameworks hold sequencing errors
Procedure, shortened: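 Synthetic nanobody libraries on Saccharomyces cerevisiae BJ5465 were galactose-induced for 36–48 hours, stained 1 hour at 4 °C with 10% biotinylated, detergent-solubilized Sf9 membrane reagent and enriched on streptavidin microbeads. FACS then separated cells into low and high (top ~1%) gates by anti-HA (expression) and streptavidin (reagent binding) fluorescence. Genes were colony-PCR amplified, MiSeq 2 × 250 sequenced and CDR-length filtered. A clone's polyreactivity label is that of its gate of origin.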

Sequence | polyreactivity (PSR sort gate)
QVQLVESGAGLVQAGGRLRLSCAASGRIFIRNAMGWSRQAPGKERELVAAIDSVGSTNYADSVKGRFTISRDNAKNTVYLQLNSLKPEETAVYYCAARGWKYASPYWGYYYWGQGSQVTVSS | low polyreactivity
QVQLVESGAGLVQAGGSLGLSCAPSGRIFGRYVRGWYRQAPGKERELVATITSRGGTTYYADSVKGRFTISRDNAKNTVFLQMISLKPEDTAVYYCAVRGLIRFSKYGYWGQGTQVTVSS | high polyreactivity
QVQLVESGAGLVQAGGSLLLSSAPSASTFVSYAMGWYRQAPGKERELVAAISSGGGSTYYADSVKGRFTISRDNAKNTVYLQMNILKPEDTAVYYCAARGYAYRAQYGYWGQGTQVTVSS | high polyreactivity
QVQLVESGAGLVQAGGSLRISCAASGRTFFPNAMGWYRQAPGKERELFAAISSGGGGTYYADSVKGRFTISRDNAKNTVYLQMNSLKPEDTAVYYCAARNSKVEEDGNYWGQGTQVTVSS | low polyreactivity
QVQLVESGAGLVQAGGSLRLCCAASGSIFAPYAMGWYRQAPGKERELVAAISRSGGSTYYADSVKGRFTISRDNAKNTVYLQMNSLKPEDTAVYYCADRNGLRQYRLDYWGQGTQVTVSS | high polyreactivity
QVQLVESGAGLVQAGGSLRLSCAASGFIFEINAMGWYRQAPGKERELVAVITNSGGSTYYADSVKGRFTISRDNAKYTVYLQMNSLKPEDTAVYYCAADAVHYTNDWYDYWGQGTQVTVSS | low polyreactivity
QVQLVESGAGLVQAGGSLRLSCAASGFTFAFYAMGWSRQAPGKERELVAAITGSGGSTYYADSVKGRFTISRDNAKNTVYLQMNSLIPEVTAVYYCNNYTYYSRMDYWGPGTQVTVSS | high polyreactivity
QVQLVESGAGLVQAGGSLRLSCAASGFTFDNYVMGWYRQAPGKERELVAAISKSGTSTYYADSVKGRFTISRDNAKNTVYLQMNSLKPEDTAVYYCAAALPGYGDYYYWGQGTLVTVSS | high polyreactivity
QVQLVESGAGLVQAGGSLRLSCAASGFTFDYYAMGWYRQAPGKESELVATINGASSTNYADSVKGRFTISRDNAKNTVYLQMNSLKPEDTAVYDCNARYYGPDFVLAYDYWGQGTQVTVSS | low polyreactivity
QVQLVESGAGLVQAGGSLRLSCAASGFTFNYYAMGWYRQAPGKERELVATITTSGGITYYADSVKGRFTISRDNAKNTVYLQMNSLKPEDTAVYYCAAGSYSRYLYSLYFDFDYWGQGTQVTVSS | low polyreactivity
QVQLVESGAGLVQAGGSLRLSCAASGIIIPYYVMGRYRQAPGKEMELVAAISGSGGSTYYADSVKGRFTISRDNAKYTVYLQLNSLKPEAPAVYYCARYYYQFGGYEYWGQGTQVTVSS | high polyreactivity
QVQLVESGAGLVQAGGSLRLSCAASGITFASYAMGWYRQAPGKERELVAAITWGGSRTYYADSVKGRFTISRDNAKNSVYLQMNSLKPEDTAVYYCNAHTRYGPDYSYYYWGQGSQVTVSS | high polyreactivity
QVQLVESGAGLVQAGGSLRLSCAASGITFYDNDMGWYRQPPGKERELVAGITGTTVGTYYADSVKGRFTISRDIAKNTVYLQMNSLKPEDTAVYYALLTVVVPYQYYSLSLNTLDSWGQGTQVTVSS | low polyreactivity
QVQLVESGAGLVQAGGSLRLSCAASGITFYDYAMAWYRQAPGKERELVAAISRSGITYYADSVKGRFTISRDNAKNTVYLQMNSLKPEVTAVYYCAAGRSFDQSMYYWGQGTQVTVSS | high polyreactivity
QVQLVESGAGLVQAGGSLRLSCAASGNTFGTYAMGGSRQAPGKERELVASISKRAGSTYYADSVKGRFTISRDNAKNTVYLQMNSLKPEDTAVYYCAASSWDTFDYWGQGTQVTVSS | high polyreactivity
QVQLVESGAGLVQAGGSLRLSCAASGRIFDNYVMGWYRQAPGKERELVAAISSGGGTYYADSVKGRFTISRDNAKNTVYLQMNSLKPEDTAVYYCAKRRVYDRSFGRYDYWGQGTKVTVSS | low polyreactivity
QVQLVESGAGLVQAGGSLRLSCAASGRIFERYAMGWYRQAPGKERELVAAISVSGSGTYYADSVKGRFTISRDNAKNTVYLQMNSLKPEDTAVYYCAADASLLGLFQGYDYWGQGTQVTVSS | low polyreactivity
QVQLVESGAGLVQAGGSLRLSCAASGRIFRCYAMGWYRQAPGKERELVAAIRSGGSTNYADSVKGRFTISRDNAKNTVYLQMLSLKPEDTAVYYCATQNIYRIHQSLWGWYGYWGQGTQVTVSS | low polyreactivity
QVQLVESGAGLVQAGGSLRLSCAASGRIFTKYAMGLYRQAPGKERELVAAISGSGGNTYYADSLKGRFTISRDNAKNTVYLQMNSLKPEDTAVYYCNRAKNAYLMDFWGQVTQVTVSS | high polyreactivity
QVQLVESGAGLVQAGGSLRLSCAASGRIFYPYAMGRSRQAPGKERELVAAISGRGGRTYYADSVKGRFTISRDNAKNTVYLQMKSLKPEYTAVYYCNRVVSGYPGSDYWGNGTQVTVSS | high polyreactivity
QVQLVESGAGLVQAGGSLRLSCAASGRIFYWNAMGWYTQAPGKEREFVAAISWSGGSTYADSVKGRFTISRDNAKNTVYLQMNSLKPEDTAVYYCATRVSRSFRAYDYWGQGTQVTVSS | high polyreactivity
QVQLVESGAGLVQAGGSLRLSCAASGRTFAFYAMGWYRQAPGKERELVAAITLGASRTYYADSVKGRFTISRDNAKNTVYLQMNSRKPEDTAVYYCNAVGRRNVDSSLNDYWGQGTLVTVSS | low polyreactivity

Sequence | polyreactivity (PSR sort gate)
QVQLVESGAGLVQAGGSLRLSCAASGRTFWSYAMGWYRQAPGKERELVAAIRTSDGITYYADSVKGRFTISRDNAKNTVYLQMNSLKPEDTAVYYCAAENWYNYDYWGQGTQVSVSS | low polyreactivity
QVQLVESGAGLVQAGGSLRLSCAASGRTLKTYVMGWYRQAPGKERELVAAITCGGRTYYADSVKGRFTISRDNAKNTVYLQMNSLKPEDTAVYYCNAQLYWYRYWYLFDNTSFDYWGQGTQVTVSS | low polyreactivity
QVQLVESGAGLVQAGGSLRLSCAASGSIFDDYAMGWSRQAPGKESELVAAISSSGTSTYYADSVKGRFTISRDNAKNTVYLQMNSLKPEDTAVYYCNRGLAARVGSGDYWGQGTQVTVSS | low polyreactivity
QVQLVESGAGLVQAGGSLRLSCAASGSIFQPDAMGWYRQAPGKERELVAAITNCGSTYYADSVKGRFTISRDNAKNTVYLQMNSLNPEVTAVYYCAADVQSSHEYDYWGQGTQVTVSS | low polyreactivity
QVQLVESGAGLVQAGGSLRLSCAASGSISRYYAMGWYRQAPGKERELVAAISVSGGSTYYADSVKGRFTISRDNAKNTVYLQMNSLKPEHTAVYYCKKVRLSDYDWGQGTQVTVSS | high polyreactivity
QVQLVESGAGLVQAGGSLRLSCAASGSTFCRYVAMGWYRQAPGKERELVAAISVSDGDTYYADSVKGRFTISRDNAKNTVYLQMNSLKPEDTAVYYCAAESFYGYDYWGQGTQVTVSS | high polyreactivity
QVQLVESGAGLVQAGGSLRLSCAASGSTFGFNTMGWYRQAPGKERELVAAISWSTGRTNYADSVKGRFTISRDNAKNTVYLQMNRLKPEDTAVYYCAARALDKYRFGGRYDYWGQGTQVTVSS | low polyreactivity
QVQLVESGAGLVQAGGSLRLSCAASGSTFGINAMGWYRQAPGKERELVASIRGDGGSTYYADSVKGRFTISRDNEKNTVSLQMNSLKPEDTAVYYCNKDDFSSPGENRYHSDPYDSWGQGTQVTVSS | low polyreactivity
QVQLVESGAGLVQAGGSLRLSCAASGSTFGRNAMGWYRQPPGKERELVASISSGGSTYYADSVKGRFTISRDNAKNTVYLQMNSLKPEDTAVYYCAKDWVYEISYYYYELDYWGQGTQVTVSS | low polyreactivity
QVQLVESGAGLVQAGGSLRLSCAASGSTFVINAMGWYRQPPGKEREFVADIDYRGGSTNYADSVKGRFTISHDNAKNTFYLQMNSLKPEDTAVYYCAAARVTIRSSHWSVDYWGQGTQVTVSS | low polyreactivity
QVQLVESGAGLVQAGGSLRLSCAASGSTFWWNTMGWYRQAPGKERELVAAITTGGGTYYADSVKGRFTISRDNAKNTVYLQMNSLKPEDTAVYYCAATVRSYGWYAYHYSTYGYWGQGTQVTVSS | low polyreactivity
QVQLVESGAGLVQAGGSLRLSCAASGYTFYFYAMGWYRQAPGKERELVAAITGGGTTSYADSVKGRFTISRDNAKNTVYLQMNSLKPEDTAVYYCNVLFADKSDYCGQGTQVTVSS | low polyreactivity
QVQLVESGAGLVQAGGSLRLSCADSGIIFSSNAMGWYRQAPGKERELVASITSAGNTYYADSVKGRFTISRDNAKNTVYLQMNSLKPEDTAVYYCYARYYYQYFHFSWSYPYGSWGQGTQVTVSS | high polyreactivity
QVQLVESGAGLVQAGGSLRLSCAPSGFTFSWYVMGWYRQAPGKERELVAAITSSGGRTYYADSVKGRFTISRDNAKNTVYLQMNSLKPEDTAVYYCAARFKRGLGDSWGQGTQVTVSS | high polyreactivity
QVQLVESGAGLVQAGGSLRLSCDASGRTVNIYAMGWYRQAPGKERELVADISYSDGSTDYADSVKGRFTISRDNAKNTVYLQMNSLKPEDTAVYYCAAYYYYYYGFGQRYYSWGQGTQVTVSS | low polyreactivity
QVQLVESGAGLVQAGGSLRLSFAASGRTFRGYAMGLYRQGPGKEREWVAAISSGGSTYYADSVKGRFTISRDNAKNTVSLQMYSLKPEDTAVYYCARAVGNYRTLEFDYWGQGTQVTVSS | low polyreactivity
QVQLVESGAGLVQAGGSRRLSCAASVLIFAWYAMGWSRQAPGNERELVAAITGTGSSTYYADSVKGRFTISRDNAKNTVYLLLNSLKPDDTAVYYCAPTSLPRYYYWGQGTQVTVSS | low polyreactivity
QVQLVESGAGLVQAGVSLRLSCAASGSIFADYAMGWYRQAPGKERELVAVISRRGGTTYYADSVKGRFTISRDNAKNTVYLPMNSLKPEDTAVYYCAARRSFNEYDYWGQGTQVTVSS | high polyreactivity
QVQLVESGAGLVQAGVSLRLSCAPSGFTFTGYAMGWYRQSPGKERELVASISKSDGSTYYAESVKGRFTISRDNAKNTVYLQMNSLKPEDTAVFYCAADANTRGSKGRLTHYDYWGQGSQVTVSS | low polyreactivity
QVQLVESGAGLVQARASHRLSCAASGSTLYAYAIGCSRQEPGKEREMVAAISGTGGSTYYADSVKGRFTISRDNAKNTVYLQMNTLKPEDTADYYCAAYYNYFGQRYYYWGQGTQVTVSS | high polyreactivity
QVQLVESGAGVVQAGGSLRLSCAASGSTFYRYAMGWYRQAPGKERELVATITNSGGSTYYADSVKGRFTISRDNAKNTVYLQMNSLKPEDTAVYYCARVRSRNTGYYYWGQGTQVTVSS | high polyreactivity
